Data on 17 molecules can be found in US20190300590A1 (PROTAGONIST THERAPEUTICS, published 2019).

Assay [1] has as its target T1, IL23R_huFC (human, UniProt Q5VWK5 24-353).
T1 sequence (looked up): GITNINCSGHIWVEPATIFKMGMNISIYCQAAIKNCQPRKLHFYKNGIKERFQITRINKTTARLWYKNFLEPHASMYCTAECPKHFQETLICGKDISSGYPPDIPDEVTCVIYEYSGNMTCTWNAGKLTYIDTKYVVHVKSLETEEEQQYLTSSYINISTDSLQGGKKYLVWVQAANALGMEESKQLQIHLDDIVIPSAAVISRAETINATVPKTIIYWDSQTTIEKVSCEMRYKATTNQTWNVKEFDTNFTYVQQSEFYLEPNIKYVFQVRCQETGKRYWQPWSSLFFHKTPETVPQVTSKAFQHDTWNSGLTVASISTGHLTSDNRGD
The assay can be described thus: IL23-IL23R competitive ELISA.

Assay [2] has as its target T2, Rat IL-23R_huFC (rat; human, UniProt F1LX96 39-369).
T2 sequence: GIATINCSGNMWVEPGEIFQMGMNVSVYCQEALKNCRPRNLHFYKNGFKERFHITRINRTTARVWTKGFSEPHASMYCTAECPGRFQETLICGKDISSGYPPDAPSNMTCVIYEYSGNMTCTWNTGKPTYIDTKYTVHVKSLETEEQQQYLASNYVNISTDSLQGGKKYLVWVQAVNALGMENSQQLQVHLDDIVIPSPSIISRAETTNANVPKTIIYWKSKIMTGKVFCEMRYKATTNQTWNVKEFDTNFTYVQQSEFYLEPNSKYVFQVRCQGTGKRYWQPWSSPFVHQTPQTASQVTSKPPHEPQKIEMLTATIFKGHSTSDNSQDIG
Kind of assay: rat IL-23R competitive ELISA. (In an ELISA, binding on a coated surface is turned into a signal by an enzyme label.)

In assay [3] the target is T3, IL-23R on human cells (IL-23R-expressing DB cells; human NK cells) (human, UniProt Q5VWK5 24-629).
T3 sequence (looked up): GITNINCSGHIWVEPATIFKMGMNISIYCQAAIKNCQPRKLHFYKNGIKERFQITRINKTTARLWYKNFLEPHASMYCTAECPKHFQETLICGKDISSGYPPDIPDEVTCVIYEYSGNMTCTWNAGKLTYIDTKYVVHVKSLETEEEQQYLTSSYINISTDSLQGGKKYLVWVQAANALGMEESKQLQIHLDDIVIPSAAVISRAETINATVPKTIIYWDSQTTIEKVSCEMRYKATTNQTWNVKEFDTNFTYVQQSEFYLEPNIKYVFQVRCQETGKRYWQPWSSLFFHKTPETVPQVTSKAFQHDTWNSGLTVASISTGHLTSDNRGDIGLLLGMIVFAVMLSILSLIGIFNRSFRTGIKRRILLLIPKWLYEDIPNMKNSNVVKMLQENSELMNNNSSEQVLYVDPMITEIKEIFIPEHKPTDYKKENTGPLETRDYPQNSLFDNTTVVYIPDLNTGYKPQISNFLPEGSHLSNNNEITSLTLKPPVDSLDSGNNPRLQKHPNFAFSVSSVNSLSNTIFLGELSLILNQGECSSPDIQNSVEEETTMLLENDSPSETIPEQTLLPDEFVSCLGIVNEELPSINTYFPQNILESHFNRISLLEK
The assay can be described thus: cell-based or functional assay.

Assay [4] deals with Rat IL-23R_huFC (rat). Kind of assay: rat ELISA vs IL-23.
For another assay, the target named is T4, IL-23R on DB cells (human, UniProt Q5VWK5 24-629).
T4 sequence (looked up): T3 sequence (looked up)
Kind of assay: cell-based or functional assay.

In assay [5] the target is T5, IL23R_huFC (human, UniProt Q5VWK5 24-353).
T5 sequence (looked up): T1 sequence (looked up)
The assay can be described thus: human ELISA vs IL-23.

In assay [6] the target is T5, IL23R_huFC. Kind of assay: human ELISA vs IL-23. The source holds these as a separate data set.

One may read the IC50 as the concentration needed to halve the response being measured.

*1 amine or outer side, *2 acyl side, *3 side chain or, on linkers, in order; H or OH if unused. Bridges are numbered along the chain shown (N, C = ends). Primed or numbered codes have the meaning given here. [ ]: non-standard residue; d: D form. Phe(4-OMe)(3) = O-methyl-L-tyrosine (4-methoxy-L-phenylalanine), COc1ccc(C[C@H](N[*:1])C(=O)[*:2])cc1; Tyr(3-tBu) = CC(C)(C)c1cc(C[C@H](N)C(=O)O)ccc1O; 1Nal = N[C@@H](Cc1cccc2ccccc12)C(=O)O; NMeQ = CN[C@@H](CCC(N)=O)C(=O)O; Cit = NC(=O)NCCC[C@H](N)C(=O)O; NMeK = CN[C@@H](CCCCN)C(=O)O; αMeK = C[C@](N)(CCCCN)C(=O)O; Abu = CC[C@H](N)C(=O)O; AEA = NCCOCC(=O)O; βAla = NCCC(=O)O

Molecule Ac-C[NMeK]TWQCYWRVFG[AEA][dK]-NH2 (cysteine pairing not given here) [Ac-C-[N-MeLys]-TWQCYWRVFG-[AEA]-[(D)Lys]-NH2] showed a half-inhibitory concentration (IC50) with IL23R_huFC [1] of 80 nM.
Molecule Ac-CKTWQCYWRVFG[AEA][dK]-NH2 (cysteine pairing not given here) [Ac-CKTWQCYWRVFG-[AEA]-[(D)Lys]-NH2] returned a half-maximal inhibitory concentration (IC50) with IL23R_huFC [1] of 40 nM.
Consider Ac-CNTWQCYWRVFG[AEA][dK]-NH2 (disulfide 1-6 (inferred)) [Ac-CNTWQCYWRVFG-[AEA]-[(D)Lys]-NH2], for which, in the assay with Rat IL-23R_huFC [2], the IC50 came to 79 nM.
Ac-C[NMeQ]TWQCYWRVFG[AEA][dK]-NH2 (disulfide 1-6 (inferred)) [Ac-C-[N-MeQln]-TWQCYWRVFG-[AEA]-[(D)Lys]-NH2] returned an IC50 in the assay with Rat IL-23R_huFC [2] of 85 nM.
For the molecule XNTWQXFXXKNA (as bracketed in name; Pen-Pen disulfide) [Ac-[Pen]-NTWQ-[Pen]-[Phe]4-(2-aminoethoxy)]-[2-Nal]-[Aib]-[Lys(Ac)]-N-[βAlal-NH2], the “NK cell assay IC50 (IFNγ)” value in assay [3] was below 10 nM.
As for Ac-CADWVCYWRKFG[βAla][dK]-NH2 (cysteine pairing not given here) [Ac-CADWVCYWRKFG-[βAla]-[(D)Lys]-NH2], the IC50 with Rat IL-23R_huFC [2] was found to be 33 nM.
In the case of Ac-CRTWQ[Abu]YWRKFG[AEA][dK]-NH2 (thioether 1-6) [Ac-Cyclo-[CRTWQ-[Abu]]-YWRKFG-[AEA]-[(D)Lys]-NH2], in the assay with Rat IL-23R_huFC [4], the IC50 was 100 to 1000 nM.

B1: [Ac-[Pen]-NTWQ-[Pen]-[Phe(4-OMe)]-[2-Nal]-[Achc]-KNN-NH2]2DIG (peptide)
peptide: XNTWQXFXXKNN
modifications: Ac; Pen-Pen disulfide; Phe(4-OMe); 2-Nal; Achc; NH2; DIG linker joins the two subunits
Take B1: in the assay with IL-23R on DB cells, the “pStat3 HTRF IC50” value is below 10 nM.
Ac-CADWVCY[1Nal][Cit]VFG[βAla][dK]-NH2 (disulfide 1-6 (inferred)) [Ac-CADWVCY-[1-Nal]-[Cit]-VFG-[β-Ala]-[(D)Lys]-NH2] displayed an IC50 with Rat IL-23R_huFC [2] of 22 nM.

B2: [Ac-[Pen]-NTWQ-[Pen]-[Phe(4-OMe)]-[2-Nal]-[α-MeLeu]-KNN-NH2]2DIG (peptide)
peptide: XNTWQXFXLKNN
modifications: Ac; Pen-Pen disulfide; Phe(4-OMe); 2-Nal; α-MeLeu; NH2; DIG linker joins the two subunits
Take B2: the “pStat3 HTRF IC50” value with IL-23R on DB cells is below 10 nM.
Turning to XQTWQXFXLKNN (as bracketed in name; Pen-Pen disulfide) [Ac-[Pen]-QTWQ-[Pen]-[Phe[4-(2-aminoethoxy)]-[2-Nal]-[α-MeLeu]-[Lys(Ac)]-NN-NH2], in assay [3], the “NK cell assay IC50 (IFNγ)” value was below 10 nM.
In the case of Ac-[Abu]QTWQCYWRENG[AEA][dK]-NH2 (thioether 1-6) [Ac-Cyclo-[[Abu]-QTWQC]-YWRENG-[AEA]-[(D)Lys]-NH2], the IC50 with Rat IL-23R_huFC [4] and with IL23R_huFC [5] was 100 to 1000 nM each time.

B3: [Ac-[Pen]-NTWQ-[Pen]-[Phe(4-OMe)]-[2-Nal]-[Acvc]-KNN-NH2]2DIG (peptide)
peptide: XNTWQXFXXKNN
modifications: Ac; Pen-Pen disulfide; Phe(4-OMe); 2-Nal; Acvc; NH2; DIG linker joins the two subunits
B3: the “pStat3 HTRF IC50” value with IL-23R on DB cells is below 10 nM.
In the case of Ac-[Abu]QTWQC[Phe(4-OMe)(3)][Tyr(3-tBu)][αMeK]ENG-NH2 (thioether 1-6) [Ac-Cyclo-[[Abu]-QTWQC]-[Phe(4-OMe)]-[Tyr(3-tBu)]-[α-MeLys]-ENG-NH2], the IC50 in the assay with IL23R_huFC [6] was 25 to 100 nM; in the assay with Rat IL-23R_huFC [4], 100 to 1000 nM.

B4: [Ac-[Pen]-NTWQ-[Pen]-[Phe(4-OMe)]-[2-Nal]-[4-amino-4-carboxy-tetrahydropyran]-KNN-NH2]2DIG (peptide)
peptide: XNTWQXFXXKNN
modifications: Ac; Pen-Pen disulfide; Phe(4-OMe); 2-Nal; 4-amino-4-carboxy-tetrahydropyran; NH2; DIG linker joins the two subunits
As for B4, the “pStat3 HTRF IC50” value in the assay with IL-23R on DB cells was below 10 nM.

B5: [Ac-[Pen]-NTWQ-[Pen]-[Phe(4-OMe)]-[2-Nal]-[Aib]-KNN-NH2]2DIG (peptide)
peptide: XNTWQXFXXKNN
modifications: Ac; Pen-Pen disulfide; Phe(4-OMe); 2-Nal; Aib; NH2; DIG linker joins the two subunits
With B5, the “pStat3 HTRF IC50” value with IL-23R on DB cells was below 10 nM.
As for CXTWQCYWRVFGXK (Ac-; [AEA]; [(D)Lys]; -NH2) [Ac-C-CYWRVFG-[AEA]-[(D)Lys]-NH2], the IC50 in the assay with Rat IL-23R_huFC [2] is 51 nM.
